Biological target: T1, S. Typhimurium 14028S HNS (STM14_2116) (Salmonella enterica serovar Typhimurium 14028S), P0A1S2
T1 chain: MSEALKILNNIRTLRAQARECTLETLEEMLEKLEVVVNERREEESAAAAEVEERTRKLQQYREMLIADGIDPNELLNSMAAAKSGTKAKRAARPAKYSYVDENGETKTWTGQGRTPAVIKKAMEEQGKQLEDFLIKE
Assay: SEC
Details: remark: other sources report otherwise

B1: S. Typhimurium 14028S HNS (STM14_2116), P0A1S2 1-137 (natural protein)
chain: T1 chain
With B1 the stoichiometry N was 2.

Source: paper doi:10.1101/2020.07.15.204859
